The values that follow are results of earlier work, collected in paper PMC4652184.

The data set addresses Slit2 (Homo sapiens) (UniProt O94813).

Robo1, sequence (Q9Y6N7 26-897): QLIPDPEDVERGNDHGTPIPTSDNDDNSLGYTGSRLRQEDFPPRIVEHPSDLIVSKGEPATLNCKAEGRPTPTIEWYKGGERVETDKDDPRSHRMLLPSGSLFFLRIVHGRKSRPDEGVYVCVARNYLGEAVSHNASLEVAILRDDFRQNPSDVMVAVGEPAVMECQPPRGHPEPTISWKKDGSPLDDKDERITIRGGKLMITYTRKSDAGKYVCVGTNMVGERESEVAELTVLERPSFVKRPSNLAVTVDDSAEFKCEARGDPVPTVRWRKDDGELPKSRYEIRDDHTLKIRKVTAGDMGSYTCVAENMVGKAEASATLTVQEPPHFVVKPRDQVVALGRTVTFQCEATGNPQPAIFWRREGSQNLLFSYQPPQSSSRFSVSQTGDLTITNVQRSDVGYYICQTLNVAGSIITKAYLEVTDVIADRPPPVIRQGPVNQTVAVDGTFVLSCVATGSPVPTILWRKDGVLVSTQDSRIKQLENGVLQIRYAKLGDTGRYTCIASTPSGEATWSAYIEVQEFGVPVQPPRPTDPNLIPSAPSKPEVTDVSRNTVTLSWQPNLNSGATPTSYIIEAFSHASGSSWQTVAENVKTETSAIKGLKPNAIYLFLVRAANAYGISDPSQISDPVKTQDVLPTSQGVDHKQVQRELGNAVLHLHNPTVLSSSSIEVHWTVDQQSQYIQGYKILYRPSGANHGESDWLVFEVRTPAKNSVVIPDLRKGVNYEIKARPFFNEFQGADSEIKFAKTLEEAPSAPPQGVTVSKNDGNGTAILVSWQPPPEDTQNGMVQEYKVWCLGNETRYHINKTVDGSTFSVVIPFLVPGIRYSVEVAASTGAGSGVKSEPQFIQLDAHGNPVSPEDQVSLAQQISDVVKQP
Slit2 (Homo sapiens), sequence (O94813 31-1529): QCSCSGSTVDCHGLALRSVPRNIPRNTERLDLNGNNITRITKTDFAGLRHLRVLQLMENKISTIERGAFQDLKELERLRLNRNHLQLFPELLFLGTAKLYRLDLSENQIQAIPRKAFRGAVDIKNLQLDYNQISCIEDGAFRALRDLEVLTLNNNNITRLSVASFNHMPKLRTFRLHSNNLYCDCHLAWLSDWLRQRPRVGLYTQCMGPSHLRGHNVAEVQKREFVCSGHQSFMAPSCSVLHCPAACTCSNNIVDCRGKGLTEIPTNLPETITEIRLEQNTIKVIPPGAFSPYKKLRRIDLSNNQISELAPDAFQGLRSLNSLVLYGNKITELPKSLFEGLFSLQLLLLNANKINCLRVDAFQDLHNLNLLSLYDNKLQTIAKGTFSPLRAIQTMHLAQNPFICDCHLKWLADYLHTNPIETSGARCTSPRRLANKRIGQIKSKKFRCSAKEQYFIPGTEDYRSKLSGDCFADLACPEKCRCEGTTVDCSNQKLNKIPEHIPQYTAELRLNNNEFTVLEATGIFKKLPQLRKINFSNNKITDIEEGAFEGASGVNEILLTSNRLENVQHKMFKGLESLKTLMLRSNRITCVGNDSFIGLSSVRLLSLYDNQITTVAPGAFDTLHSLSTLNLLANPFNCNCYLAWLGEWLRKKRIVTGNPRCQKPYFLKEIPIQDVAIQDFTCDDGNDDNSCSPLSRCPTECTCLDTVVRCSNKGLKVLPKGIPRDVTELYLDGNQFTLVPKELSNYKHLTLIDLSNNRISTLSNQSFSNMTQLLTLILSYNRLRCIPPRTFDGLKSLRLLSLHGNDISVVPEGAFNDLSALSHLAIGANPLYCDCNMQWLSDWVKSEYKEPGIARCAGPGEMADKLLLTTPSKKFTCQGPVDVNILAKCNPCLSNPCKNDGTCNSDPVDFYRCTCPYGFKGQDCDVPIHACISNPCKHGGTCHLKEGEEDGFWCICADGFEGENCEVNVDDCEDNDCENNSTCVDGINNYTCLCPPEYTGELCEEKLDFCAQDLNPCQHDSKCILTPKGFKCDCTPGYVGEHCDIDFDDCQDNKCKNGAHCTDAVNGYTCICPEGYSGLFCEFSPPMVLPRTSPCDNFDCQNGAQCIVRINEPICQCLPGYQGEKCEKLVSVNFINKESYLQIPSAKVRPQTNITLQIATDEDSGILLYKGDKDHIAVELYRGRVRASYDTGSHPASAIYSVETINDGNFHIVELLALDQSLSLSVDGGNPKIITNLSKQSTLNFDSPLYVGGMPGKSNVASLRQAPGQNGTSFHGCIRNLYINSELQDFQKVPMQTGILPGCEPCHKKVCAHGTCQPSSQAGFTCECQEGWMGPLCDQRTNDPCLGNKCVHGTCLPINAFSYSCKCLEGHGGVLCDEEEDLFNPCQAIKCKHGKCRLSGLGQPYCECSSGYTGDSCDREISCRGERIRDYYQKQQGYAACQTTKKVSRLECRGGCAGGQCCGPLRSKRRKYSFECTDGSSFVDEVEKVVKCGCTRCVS

With Robo1 (from UniProt Q9Y6N7), the Kd was 4.5 nM.

What is called Kd is the equilibrium constant for the complex coming apart.
